Numbering of substitutions follows the chain as printed. Numbered stars: 1 amine (or outer) side, 2 acyl side, 3 side chain; on linkers, the order of the positions; unused ones are H or OH. Bridge positions count the residues as written; N and C are the ends. Square brackets hold non-standard residues; d marks the D form. Side chains are listed from the residue outwards. Ends that are not written are not given here. * marks the point of attachment. C20 diacid = O=C(O)CCCCCCCCCCCCCCCCCCC(=O)*; γGlu = O=C(O)[C@H](CCC(=O)[*:2])N[*:1]; Hyp = O=C(O)[C@@H]1C[C@@H](O)CN1; AEEA = NCCOCCOCC(=O)O Some results are limits rather than exact numbers.

First the molecules themselves.
B1: SEQ ID NO: 361 (peptide)
peptide: KCNFATCTVQRLAHQIYQFTDKDKDNVAPRTKVGSNGY
B2: SEQ ID NO: 343 (peptide)
peptide: GCRFGTCTVQWLAHQIYQFTDKDKDNVAPRTKIGPNG[Hyp]-NH2
modifications: disulfide 2-7 (inferred); ends not checked
B3: SEQ ID NO: 353 (peptide)
peptide: GCRFGTCTVQWLAHQIYQFTDKDKDNVAPRSKVGPQG[Hyp]-NH2
modifications: disulfide 2-7 (inferred); ends not checked
B4: SEQ ID NO: 36 (peptide)
peptide: KCK([AEEA-AEEA-γGlu-C20 diacid])TATCTVQRLAEQIYQFTDKDKDNVAPPTNVGSNG[Hyp]-NH2
modifications: disulfide 2-7 (inferred); ends not checked
B5: SEQ ID NO: 352 (peptide)
peptide: GCRTGTCTVQWLAHQIYQFTDKDKDNVAPRSNIGPNG[Hyp]-NH2
modifications: disulfide 2-7 (inferred); ends not checked
B6: SEQ ID NO: 341 (peptide)
peptide: GCRTGTCTVQWLAHQIYQFTDKDKDNVAPRTNIGPQG[Hyp]-NH2
modifications: disulfide 2-7 (inferred); ends not checked
B7: SEQ ID NO: 359 (peptide)
peptide: GCRTGTCTVQWLAHQIYQFTDKDKDNVAPRSNIGPQG[Hyp]-NH2
modifications: disulfide 2-7 (inferred); ends not checked
B8: SEQ ID NO: 363 (peptide)
peptide: KCNFATCATQRLANFLVQFTDKDKDNVAPRSKIGPQGY
B9: SEQ ID NO: 349 (peptide)
peptide: GCRTGTCTVQWLAHQIYQFTDKDKDNVAPRTKVGPQG[Hyp]-NH2
modifications: disulfide 2-7 (inferred); ends not checked
B10: SEQ ID NO: 4 (peptide)
peptide: {C20 diacid-γGlu}-KCNTATCTVDRLAHQIYQFTDKDKDNVAPPTNVGSNG[Hyp]-NH2
modifications: disulfide 2-7 (inferred); ends not checked
B11: SEQ ID NO: 358 (peptide)
peptide: GCRTGTCTVQWLAHQIYQFTDKDKDNVAPRTNVSPNG[Hyp]-NH2
modifications: disulfide 2-7 (inferred); ends not checked
B12: SEQ ID NO: 342 (peptide)
peptide: GCRTGTCTVQWLAHQIYQFTDKDKDNVAPRSNVGPQG[Hyp]-NH2
modifications: disulfide 2-7 (inferred); ends not checked
B13: SEQ ID NO: 340 (peptide)
peptide: GCRFGTCTVQWLAHQIYQFTDKDKDNVAPRTNVSPQGY
B14: SEQ ID NO: 346 (peptide)
peptide: B13 peptide with F4T, T31S, S34G
B15: SEQ ID NO: 345 (peptide)
peptide: B13 peptide with T31S
B16: SEQ ID NO: 344 (peptide)
peptide: B13 peptide with F4T, T31S, N32K, S34G
B17: SEQ ID NO: 348 (peptide)
peptide: B13 peptide with F4T, V33I, S34G, Q36N
B18: SEQ ID NO: 354 (peptide)
peptide: B13 peptide with F4T, N32K, S34G
B19: SEQ ID NO: 362 (peptide)
peptide: B13 peptide with W11R, S34G
B20: SEQ ID NO: 356 (peptide)
peptide: B13 peptide with F4T, V33I, S34G
B21: SEQ ID NO: 366 (peptide)
peptide: B13 peptide with W11R, V33I, Q36N
B22: SEQ ID NO: 357 (peptide)
peptide: GCRTGTCTVQWLAHQIYQFTDKDKDNVAPRTKIGPQG[Hyp]-NH2
modifications: disulfide 2-7 (inferred); ends not checked
B23: SEQ ID NO: 355 (peptide)
peptide: GCRTGTCTVQWLAHQIYQFTDKDKDNVAPRSKIGPNG[Hyp]-NH2
modifications: disulfide 2-7 (inferred); ends not checked
B24: SEQ ID NO: 339 (peptide)
peptide: GCRTGTCTVQWLAHQIYQFTDKDKDNVAPRTKIGPNG[Hyp]-NH2
modifications: disulfide 2-7 (inferred); ends not checked
B25: SEQ ID NO: 350 (peptide)
peptide: GCRFGTCTVQWLAHQIYQFTDKDKDNVAPRTKISPQG[Hyp]-NH2
modifications: disulfide 2-7 (inferred); ends not checked
B26: SEQ ID NO: 360 (peptide)
peptide: GCRTGTCTVQWLAHQIYQFTDKDKDNVAPRSNVSPNG[Hyp]-NH2
modifications: disulfide 2-7 (inferred); ends not checked
B27: SEQ ID NO: 347 (peptide)
peptide: GCRTGTCTVQWLAHQIYQFTDKDKDNVAPRSKVGPNG[Hyp]-NH2
modifications: disulfide 2-7 (inferred); ends not checked
B28: SEQ ID NO: 364 (peptide)
peptide: GCRFGTCTVQRLAHFLYQFTDKDKDNVAPRTNIGPQGY
B29: SEQ ID NO: 367 (peptide)
peptide: B28 peptide with F15Q, L16I, N32K, Q36N
B30: SEQ ID NO: 365 (peptide)
peptide: B28 peptide with N32K
B31: SEQ ID NO: 351 (peptide)
peptide: GCRIGTCTVQWLAHQIYQFTDKFKDNVAPRSKISPQT[Hyp]-NH2
modifications: disulfide 2-7 (inferred); ends not checked
B32: SEQ ID NO: 37 (peptide)
peptide: {C20 diacid-γGlu}-KCNTATCTVARLAHQIYQFTDKDKDNVAPPTNVGSNG[Hyp]-NH2
modifications: disulfide 2-7 (inferred); ends not checked
B33: SEQ ID NO: 35 (peptide)
peptide: {C20 diacid-γGlu}-KCNTATCTVQRLAHQIQQFTDKDKDNVAPPTNVGSNG[Hyp]-NH2
modifications: disulfide 2-7 (inferred); ends not checked

The target of the first test is hAM1R (human, UniProt Q16602). Put plainly: cell-based or functional assay.
Turning to B1, the “hAM1R EC50 (cAMP)” value worked out at 0.913 nM.
Regarding B2, the “hAM1R EC50 (cAMP)” value is 117 nM.
Regarding B3, the “hAM1R EC50 (cAMP)” value was 2920 nM.
On the same count and under the same terms, the figure for B4 is above 5000 nM; for B5 it is 1120 nM.
Still for that read-out and setting: the figure for B6 is above 5000 nM.
Same read-out and setting: the figure for B7 is above 5000 nM.
For B8, the “hAM1R EC50 (cAMP)” value amounted to 1.77 nM.
Consider B9, for which the “hAM1R EC50 (cAMP)” value is above 5000 nM.
The same measure, in the same setting: the figure for B10 is above 5000 nM.
Same read-out and setting: under B11 stands above 5000 nM; under B12, above 5000 nM; under B13, 671 nM.
On the same count and under the same terms, the figure for B14 is above 5000 nM; for B15 it is 113 nM.
B16: the “hAM1R EC50 (cAMP)” value was above 5000 nM.
Still for that read-out and setting: under B17 stands above 5000 nM; under B18, above 5000 nM; under B19, 18.1 nM.
Same read-out and setting: the figure for B20 is above 5000 nM.
Same read-out and setting: the figure for B21 is 12.1 nM; for B22 it is above 5000 nM.
Regarding B23, the “hAM1R EC50 (cAMP)” value is above 5000 nM.
Still for that read-out and setting: the figure for B24 is above 5000 nM; for B25 it is 1180 nM; for B26 it is above 5000 nM.
Still for that read-out and setting: the figure for B27 is above 5000 nM; for B28 it is 13.6 nM; for B29 it is 0.563 nM.
Regarding B30, the “hAM1R EC50 (cAMP)” value amounted to 1.21 nM.
On the same count and under the same terms, under B31 stands above 5000 nM; under B32, above 5000 nM.
The same measure, in the same setting: under B33 stands above 5000 nM.

The target in the next test is T1, hAMY3R (human, UniProt P30988).
T1 sequence 1: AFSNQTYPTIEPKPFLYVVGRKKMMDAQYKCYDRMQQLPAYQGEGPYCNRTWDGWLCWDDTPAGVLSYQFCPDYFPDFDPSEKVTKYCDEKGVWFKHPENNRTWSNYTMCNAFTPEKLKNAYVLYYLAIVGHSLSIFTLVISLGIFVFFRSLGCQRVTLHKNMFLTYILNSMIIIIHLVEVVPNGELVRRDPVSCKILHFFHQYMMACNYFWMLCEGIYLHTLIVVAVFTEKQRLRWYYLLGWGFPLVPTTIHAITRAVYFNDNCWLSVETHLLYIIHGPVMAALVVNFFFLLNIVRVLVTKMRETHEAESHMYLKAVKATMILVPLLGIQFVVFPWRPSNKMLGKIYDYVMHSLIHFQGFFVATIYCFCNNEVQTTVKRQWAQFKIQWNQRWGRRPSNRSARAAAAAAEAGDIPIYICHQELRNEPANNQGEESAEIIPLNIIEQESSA
T1 sequence 2: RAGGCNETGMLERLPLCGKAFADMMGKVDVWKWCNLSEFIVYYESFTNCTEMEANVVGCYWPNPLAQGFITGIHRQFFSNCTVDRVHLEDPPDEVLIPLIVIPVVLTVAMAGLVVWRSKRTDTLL
Put plainly: cell-based or functional assay.
For the molecule B1, the “hAMY3R EC50 (cAMP)” value amounted to 0.006 nM.
Still for that read-out and setting: under B2 stands 0.017 nM.
The same measure, in the same setting: the figure for B3 is 0.027 nM; for B4 it is 0.009 nM.
In the case of B5, the “hAMY3R EC50 (cAMP)” value worked out at 0.04 nM.
As to B6, the “hAMY3R EC50 (cAMP)” value amounted to 0.029 nM.
The same measure, in the same setting: the figure for B7 is 0.145 nM.
On the same count and under the same terms, under B8 stands 0.01 nM; under B9, 0.046 nM; under B10, 0.006 nM.
On the same count and under the same terms, under B11 stands 0.071 nM; under B12, 0.054 nM; under B13, 0.022 nM.
In the case of B14, the “hAMY3R EC50 (cAMP)” value worked out at 0.085 nM.
For B15, the “hAMY3R EC50 (cAMP)” value stood at 0.051 nM.
Same read-out and setting: the figure for B16 is 0.121 nM.
On the same count and under the same terms, under B17 stands 0.041 nM; under B18, 0.091 nM; under B19, 0.007 nM.
The same measure, in the same setting: the figure for B20 is 0.079 nM.
Regarding B21, the “hAMY3R EC50 (cAMP)” value was determined as 0.013 nM.
Same read-out and setting: under B22 stands 0.115 nM.
Still for that read-out and setting: under B23 stands 0.14 nM; under B24, 0.047 nM; under B25, 0.044 nM.
Still for that read-out and setting: the figure for B26 is 0.165 nM; for B27 it is 0.068 nM.
As to B28, the “hAMY3R EC50 (cAMP)” value was 0.01 nM.
The same measure, in the same setting: under B29 stands 0.014 nM; under B30, 0.012 nM; under B31, 0.943 nM.
Same read-out and setting: the figure for B32 is 0.01 nM; for B33 it is 0.009 nM.
